# According to patent publication US20190315854A1 (BEIJING VDJBIO, published 2019):
# Substitutions are numbered along the chain they refer to.
# T1: sIL-6R (soluble IL-6 receptor; SBH Sciences) (human, UniProt P08887 20-365)
# T1 construct: also called human IL-6R
# T1 sequence: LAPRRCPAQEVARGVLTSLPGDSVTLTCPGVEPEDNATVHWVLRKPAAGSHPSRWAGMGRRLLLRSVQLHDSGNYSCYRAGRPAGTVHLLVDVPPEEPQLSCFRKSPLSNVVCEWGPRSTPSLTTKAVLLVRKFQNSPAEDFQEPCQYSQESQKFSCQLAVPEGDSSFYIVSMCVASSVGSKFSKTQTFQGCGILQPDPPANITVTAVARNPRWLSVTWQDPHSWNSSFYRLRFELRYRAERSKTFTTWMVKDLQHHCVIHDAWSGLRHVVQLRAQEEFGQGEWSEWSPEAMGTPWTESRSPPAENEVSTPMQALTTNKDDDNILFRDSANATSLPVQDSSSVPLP
# B1: 52# (antibody, human IgG1, kappa, V domains shown)
# VH: QVQLQESGPGLVRPSQTLSLTCTVSGYSITSDHAWSWVRQPPGRGLEWIGYISYSGITTYNPSLKSRVTMLRDTSKNQFSLRLSSVTAADTAVYYCARSLARTTAIDFWGQGSLVTVSS
# VL: DIQMTQSPSSLSASVGDRVTITCRASQDISSYLNWYQQKPGKAPKLLIYYTSRLHSGVPSRFSGSGSGTDFTFTISSLQPEDIATYYCQQGNTLPYTFGQGTKVEIKR
# notes: also called Sample # 52
# B2: 55# (antibody, human IgG1, kappa, V domains shown)
# VH: B1 VH with Y51F, I57M, T58I, S99C, I106M, F108Y
# VL: B1 VL
# notes: also called Sample # 55
# B3: 59# (antibody, human IgG1, kappa, V domains shown)
# VH: B1 VH with Y51F, I57M, S99C, I106M, F108Y
# VL: B1 VL
# notes: also called Sample # 59
# B4: 69# (antibody, human IgG1, kappa, V domains shown)
# VH: B1 VH with Y51F, I57M, S99C
# VL: B1 VL
# notes: also called Sample # 69
# B5: 214# (antibody, human IgG1, kappa, V domains shown)
# VH: B1 VH with S99C, T103M
# VL: B1 VL
# B6: 215# (antibody, human IgG1, kappa, V domains shown)
# VH: B1 VH with I57M, T58I, T103M, I106M, F108Y
# VL: B1 VL
# B7: 216# (antibody, human IgG1, kappa, V domains shown)
# VH: B1 VH with I57M, T58I
# VL: B1 VL
# notes: also called Sample # 216
# B8: 217# (antibody, human IgG1, kappa, V domains shown)
# VH: B1 VH with I57M, T58I, S99C, T103M, I106M, F108Y
# VL: B1 VL
# notes: also called Sample # 217
# B9: 218# (antibody, human IgG1, kappa, V domains shown)
# VH: B1 VH with I57M, T58I, S99C, T103M
# VL: B1 VL
# B10: 219# (antibody, human IgG1, kappa, V domains shown)
# VH: B1 VH with S99C, T103M
# VL: B1 VL with Q89G, T93R
# B11: 220# (antibody, human IgG1, kappa, V domains shown)
# VH: B1 VH with I57M, T58I, T103M, I106M, F108Y
# VL: B1 VL with Q89G, T93R
# notes: also called Sample # 220
# B12: 221# (antibody, human IgG1, kappa, V domains shown)
# VH: B1 VH with I57M, T58I
# VL: B1 VL with Q89G, T93R
# B13: 222# (antibody, human IgG1, kappa, V domains shown)
# VH: B1 VH with I57M, T58I, S99C, T103M, I106M, F108Y
# VL: B1 VL with Q89G, T93R
# notes: also called Sample # 222
# B14: 223# (antibody, human IgG1, kappa, V domains shown)
# VH: B1 VH with I57M, T58I, S99C, T103M
# VL: B1 VL with Q89G, T93R
# notes: also called Sample # 223
# B15: 224# (antibody, human IgG1, kappa, V domains shown)
# VH: B1 VH with I57M, S99C, I106M, F108Y
# VL: B1 VL
# B16: 225# (antibody, human IgG1, kappa, V domains shown)
# VH: B1 VH with I57M, T58I, S99C, I106M, F108Y
# VL: B1 VL
# B17: 226# (antibody, human IgG1, kappa, V domains shown)
# VH: B1 VH with I57M, T58I, S99C, T103A, I106M, F108Y
# VL: B1 VL
# B18: 227# (antibody, human IgG1, kappa, V domains shown)
# VH: B1 VH with I57M, T58I, T103A, I106M, F108Y
# VL: B1 VL
# notes: also called Sample # 227
# B19: 228# (antibody, human IgG1, kappa, V domains shown)
# VH: B1 VH with I57M, S99C, T103M
# VL: B1 VL
# notes: also called Sample # 228
# B20: 229# (antibody, human IgG1, kappa, V domains shown)
# VH: B1 VH with I57M, T58I, T103M
# VL: B1 VL
# B21: 230# (antibody, human IgG1, kappa, V domains shown)
# VH: B1 VH with I57M, T58I, S99C
# VL: B1 VL
# notes: also called Sample # 230
# B22: 232# (antibody, human IgG1, kappa, V domains shown)
# VH: B1 VH with I57M, T58I, S99T, T103M, I106M, F108Y
# VL: B1 VL
# B23: 233# (antibody, human IgG1, kappa, V domains shown)
# VH: B1 VH with I57M, T58I, S99T
# VL: B1 VL
# B24: 234# (antibody, human IgG1, kappa, V domains shown)
# VH: B1 VH with I57M, S99C, T103M, I106M, F108Y
# VL: B1 VL
# B25: 235# (antibody, human IgG1, kappa, V domains shown)
# VH: B1 VH with I57M, T58I, S99T, T103M
# VL: B1 VL
# B26: 236# (antibody, human IgG1, kappa, V domains shown)
# VH: B1 VH with I57M, S99C, T103A, I106M, F108Y
# VL: B1 VL
# B27: 238# (antibody, human IgG1, kappa, V domains shown)
# VH: B1 VH with I57M, T58I, S99C, I106M, F108Y
# VL: B1 VL with Q89G, T93R
# B28: 239# (antibody, human IgG1, kappa, V domains shown)
# VH: B1 VH with I57M, T58I, S99C, T103A, I106M, F108Y
# VL: B1 VL with Q89G, T93R
# B29: 240# (antibody, human IgG1, kappa, V domains shown)
# VH: B1 VH with I57M, T58I, T103A, I106M, F108Y
# VL: B1 VL with Q89G, T93R
# notes: also called Sample # 240
# B30: 241# (antibody, human IgG1, kappa, V domains shown)
# VH: B1 VH with I57M, S99C, T103M
# VL: B1 VL with Q89G, T93R
# B31: 242# (antibody, human IgG1, kappa, V domains shown)
# VH: B1 VH with I57M, T58I, T103M
# VL: B1 VL with Q89G, T93R
# notes: also called Sample # 242
# Biological target: T1, sIL-6R (soluble IL-6 receptor; SBH …)
# Assay: SPR (BIAcore 3000), antibody on chip, sIL-6R analyte, 25 C
# Method: All SPR measurements were performed on a BIAcore 3000 instrument (GE Biosciences, Piscataway, N.J.). BIAcore Software-BIAcore 3000 Control Software V3.2 was used for the operation and control of the BIAcore 3000 instrument. BiaEvaluation Software V4.1 was used for the analysis of SPR data from the BIAcore 3000 instrument and data was plotted using Graph Pad Prism Software Version 5. […] The indicated antibodies were used as the ligand for the construction of the reference channel of the chip. […] Each sample was injected for 3 min at a flow rate of 30 μL/min to allow for binding to chip-bound antibody. Next, binding buffer without analyte was sent over the chip at the same flow rate to allow for dissociation of bound analyte. After 500s, remaining bound analyte was removed by injecting regeneration solution (1M Formic acid). Data was analyzed by using the Kinetics Wizard and the manual fitting programs that are both included with the BiaEvaluation Software V4.1.
Binder,Kd [nM],Relative Affinity,koff [s⁻¹],kon [M⁻¹ s⁻¹]
B1,1.86,1.7 fold vs 25 (Tocilizumab),0.000199,107000
B2,0.387,8.2 fold vs 25 (Tocilizumab),7.24e-05,187000
B3,0.283,11.2 fold vs 25 (Tocilizumab),4.86e-05,172000
B4,0.286,11 fold vs 25 (Tocilizumab),4.14e-05,145000
B5,0.369,8.7 fold vs 25 (Tocilizumab),4.69e-05,127000
B6,1.03,3.1 fold vs 25 (Tocilizumab),0.000161,157000
B7,1.83,1.7 fold vs 25 (Tocilizumab),0.000266,145000
B8,0.581,5.4 fold vs 25 (Tocilizumab),0.000109,188000
B9,0.621,5.1 fold vs 25 (Tocilizumab),6.63e-05,107000
B10,0.491,6.4 fold vs 25 (Tocilizumab),5.96e-05,121000
B11,0.483,6.5 fold vs 25 (Tocilizumab),6.34e-05,131000
B12,0.663,4.8 fold vs 25 (Tocilizumab),9.01e-05,136000
B13,0.286,11 fold vs 25 (Tocilizumab),3.66e-05,128000
B14,0.368,8.6 fold vs 25 (Tocilizumab),4.91e-05,133000
B15,0.5,6.3 fold vs 25 (Tocilizumab),7.99e-05,160000
B16,0.645,4.9 fold vs 25 (Tocilizumab),0.000105,163000

Binder,Kd [nM],Relative Affinity,koff [s⁻¹],kon [M⁻¹ s⁻¹]
B17,0.102,31 fold vs 25 (Tocilizumab),1.6e-05,156000
B18,0.477,6.6 fold vs 25 (Tocilizumab),6.9e-05,144000
B19,0.204,15.5 fold vs 25 (Tocilizumab),3.04e-05,149000
B20,0.605,5.2 fold vs 25 (Tocilizumab),7.49e-05,124000
B21,0.448,7.1 fold vs 25 (Tocilizumab),6.15e-05,137000
B22,0.319,9.9 fold vs 25 (Tocilizumab),4.81e-05,151000
B23,0.387,8.2 fold vs 25 (Tocilizumab),5.75e-05,149000
B24,0.37,8.5 fold vs 25 (Tocilizumab),5.69e-05,154000
B25,0.297,10.6 fold vs 25 (Tocilizumab),3.81e-05,128000
B26,0.0829,38.1 fold vs 25 (Tocilizumab),1.53e-05,185000
B27,0.111,28.5 fold vs 25 (Tocilizumab),1.5e-05,135000
B28,0.164,19.3 fold vs 25 (Tocilizumab),2.36e-05,144000
B29,0.15,21.1 fold vs 25 (Tocilizumab),2.3e-05,154000
B30,0.202,15.6 fold vs 25 (Tocilizumab),3.61e-05,179000
B31,1.24,2.6 fold vs 25 (Tocilizumab),8.71e-05,70200
